To fix the notation:
B1: LINE1-full (parent)
chain: UACGUAGGUGGUUUUCCCCUGAUAGUGCUAAGGGGGCCUGGAAGUUUGGACUGGGCAGAGCUCAACACAGCGUGGCAAAGUGGCUGUGGCUAGACUGCCUCUCUGGAUUCCUCGUCACUCAGCAGGGCAUCUCUGAGAGAAAUGCC

In the series the parent is B1. Kind of series: self-cleavage, relative activity (ratio to wild type); higher = more cleavage; in vitro, sequencing; the parent is a self-cleaving ribozyme.
Take UACGUAGGUGGUUUUCCCCUGAUAGUGCUAAGGGGGCCUGGAAGUUUGGACUGGGCAGAGCUCAACACAGCGUGGCAAAGAGGCUGUGGCUAGACUGCCUCUCUGGAUUCCACGUCACUCAGCAGGGCAUCUCUGAGAGAAAUGCC: the self-cleavage was determined as 1.7.

Take UACGUAGGUGGUUUUCCCCUGAUAGUGCUAAGGGGGCCUGGAAGUUUGGACUGGGCAGAGCUCAACACAGCGUGGCAAAGAGGCUGUAGCUAGACUGCCUCUCUGGAUUCCUCGUCACUCAGCAGGGCAUCUCUGAGAGAAAUGCC: the self-cleavage is 0.06.

As to UACGUAGGUGGUUUUCCCCUGAUAGUGCUAAGGGGGCCUGGAAGUUUGGACUGGGCAGAGCUCAACACAGCGUGGCAAAGAGGCUGUGGCUAGACUGCCUCUCUGGAUUCCUCGUCACUCAGCAGGACAUCUCUGAGAGAAAUGCC, the self-cleavage worked out at 1.72.

As to UACGUAGGUGGUUUUCCCCUGAUAGUGCUAAGGGGGCCUGGAAGUUUGGACUGGGCAGAGCUCAACACAGCGUGGCAAAGAGGCUGUGGCUAGACUGCCUCUCUGGAUUCCUCGUCACUCAGCAGGGCAUCUCUGAGAGAAAUGCU, the self-cleavage came out at 1.56.

Turning to UACGUAGGUGGUUUUCCCCUGAUAGUGCUAAGGGGGCCUGGAAGUUUGGACUGGGCAGAGCUCAACACAGCGUGGCAAAGAGGCUGUGACUAGACUGCCUCUCUGGAUUCCUCGUCACUCAGCAGGGCAUCUCUGAGAGAAAUGCC, the self-cleavage was found to be 0.

As for UACGUAGGUGGUUUUCCCCUGAUAGUGCUAAGGGGGCCUGGAAGUUUGGACUGGGCAGAGCUCAACACAGCGUGGCAAAGAGGCUGUGGCUAGACUGCCUCUCUGGAUUCCUCGUCACUCAGCAGGGCAUCUUUGAGAGAAAUGCC, the self-cleavage came out at 1.95.

Regarding UACGUAGGUGGUUUUCCCCUGAUAGUGCUAAGGGGGCCUGGAAGUUUGGACUGGGCAGAGCUCAACACAGCGUGGCAAAGAGGCUGUGGCUAGACAGCCUCUCUGGAUUCCUCGUCACUCAGCAGGGCAUCUCUGAGAGAAAUGCC, the self-cleavage stood at 0.07.

Regarding UACGUAGGUGGUUUUCCCCUGAUAGUGCUAAGGGGGCCUGGAAGUUUGGACUGGGCAGAGCUCAACACAGCGUGGCAAAGAGGCUGUGGCUAGACCGCCUCUCUGGAUUCCUCGUCACUCAGCAGGGCAUCUCUGAGAGAAAUGCC, the self-cleavage came to 0.13.

Take UACGUAGGUGGUUUUCCCCUGAUAGUGCUAAGGGGGCCUGGAAGUUUGGACUGGGCAGAGCUCAACACAGCGUGGCAAAGCGGCUGUGGCUGGACUGCCUCUCUGGAUUCCUCGUCACUCAGCAGGGCAUCUCUGAGAGAAAUGCC: the self-cleavage stood at 0.

In the case of UACGUAGGUGGUUUUCCCCUGAUAGUGCUAAGGGGGCCUGGAAGUUUGGACUGGGCAGAGCUCAACACAGCGUGGCAAAGCGGCUGUGGCUUGACUGCCUCUCUGGAUUCCUCGUCACUCAGCAGGGCAUCUCUGAGAGAAAUGCC, the self-cleavage is 0.95.

On to UACGUAGGUGGUUUUCCCCUGAUAGUGCUAAGGGGGCCUGGAAGUUUGGACUGGGCAGAGCUCAACACAGCGUGGCAAAGCGGCUGUGGCUAGACUGCCUCUCUGGAUUCCUCGUCACUCGGCAGGGCAUCUCUGAGAGAAAUGCC, for which the self-cleavage is 1.38.

UACGUAGGUGGUUUUCCCCUGAUAGUGCUAAGGGGGCCUGGAAGUUUGGACUGGGCAGAGCUCAACACAGCGUGGCAAAGAGGCUGUGGCUAGACUGCCUCUCUGGAUUCCUCGUCACUCAGCAGUGCAUCUCUGAGAGAAAUGCC: the self-cleavage was determined as 2.04.

Take UACGUAGGUGGUUUUCCCCUGAUAGUGCUAAGGGGGCCUGGAAGUUUGGACUGGGCAGAGCUCAACACAGCGUGGCAAAGAGGCUGUGGCUAGACUGCCUCUCUGGAUUCCUCGCCACUCAGCAGGGCAUCUCUGAGAGAAAUGCC: the self-cleavage turned out to be 2.44.

With UACGUAGGUGGUUUUCCCCUGAUAGUGCUAAGGGGGCCUGGAAGUUUGGACUGGGCAGAGCUCAACACAGCGUGGCAAAGAGGCUGUGGCUAGACUGCCUCUCUGGAUUCCUCGACACUCAGCAGGGCAUCUCUGAGAGAAAUGCC, the self-cleavage was found to be 2.46.

Take UACGUAGGUGGUUUUCCCCUGAUAGUGCUAAGGGGGCCUGGAAGUUUGGACUGGGCAGAGCUCAACACAGCGUGGCAAAGAGGCUGUGGCUAGACUGCCUCUAUGGAUUCCUCGUCACUCAGCAGGGCAUCUCUGAGAGAAAUGCC: the self-cleavage turned out to be 1.98.

As for UACGUAGGUGGUUUUCCCCUGAUAGUGCUAAGGGGGCCUGGAAGUUUGGACUGGGCAGAGCUCAACACAGCGUGGCAAAGAGGCUGUGGCUAGACUGCCUCUUUGGAUUCCUCGUCACUCAGCAGGGCAUCUCUGAGAGAAAUGCC, the self-cleavage came out at 0.63.

Regarding UACGUAGGUGGUUUUCCCCUGAUAGUGCUAAGGGGGCCUGGAAGUUUGGACUGGGCAGAGCUCAACACAGCGUGGCAAAGAGGCUGUGGCUAGACUGCCUCUCUGGAUUCCUCGUCACUCAGCAGGGCAUCUCUGAGAGAAGUGCC, the self-cleavage turned out to be 2.07.

Take UACGUAGGUGGUUUUCCCCUGAUAGUGCUAAGGGGGCCUGGAAGUUUGGACUGGGCAGAGCUCAACACAGCGUGGCAAAGAGGCUGUGGCUAGACUGCCUCUCUGGAUUCCUCGUCACUCAGCAGGGCAUCUCUGAGAGAAAUGAC: the self-cleavage was 2.25.

On to UACGUAGGUGGUUUUCCCCUGAUAGUGCUAAGGGGGCCUGGAAGUUUGGACUGGGCAGAGCUCAACACAGCGUGGCAAAGAGGCUGUGGCUAGACUGCCUCUCUGGAUUCCUCGUCACCCAGCAGGGCAUCUCUGAGAGAAAUGCC, for which the self-cleavage was determined as 2.53.

For the variant UACGUAGGUGGUUUUCCCCUGAUAGUGCUAAGGGGGCCUGGAAGUUUGGACUGGGCAGAGCUCAACACAGCGUGGCAAAGAGGCUGUGGCUAGACUGCCUCUCUGGAUUCCUCGUCACACAGCAGGGCAUCUCUGAGAGAAAUGCC, the self-cleavage amounted to 2.53.

On to UACGUAGGUGGUUUUCCCCUGAUAGUGCUAAGGGGGCCUGGAAGUUUGGACUGGGCAGAGCUCAACACAGCGUGGCAAAGAGGCUGUGGCUAGACUGCCUCUCUGGAUUCCUCGUCACUCAGCAGGGCAUCUCAGAGAGAAAUGCC, for which the self-cleavage amounted to 2.49.

In the case of UACGUAGGUGGUUUUCCCCUGAUAGUGCUAAGGGGGCCUGGAAGUUUGGACUGGGCAGAGCUCAACACAGCGUGGCAAAGAGGCUGUGGCUAGACUGCCUCUCUGGAUUCCUCGUCACUCAGCAGGGCAUCUCGGAGAGAAAUGCC, the self-cleavage is 0.65.

Turning to UACGUAGGUGGUUUUCCCCUGAUAGUGCUAAGGGGGCCUGGAAGUUUGGACUGGGCAGAGCUCAACACAGCGUGGCAAAGCGGCUGUGGCUAGACUGCCUCUCUGGGUUCCUCGUCACUCAGCAGGGCAUCUCUGAGAGAAAUGCC, the self-cleavage is 1.21.

On to UACGUAGGUGGUUUUCCCCUGAUAGUGCUAAGGGGGCCUGGAAGUUUGGACUGGGCAGAGCUCAACACAGCGUGGCAAAGCGGCUGUGGCUAGACUGCCUCUCUGGAUUCCUCGUCGCUCAGCAGGGCAUCUCUGAGAGAAAUGCC, for which the self-cleavage came to 1.21.

As for UACGUAGGUGGUUUUCCCCUGAUAGUGCUAAGGGGGCCUGGAAGUUUGGACUGGGCAGAGCUCAACACAGCGUGGCAAAGAGGCAGUGGCUAGACUGCCUCUCUGGAUUCCUCGUCACUCAGCAGGGCAUCUCUGAGAGAAAUGCC, the self-cleavage was found to be 0.09.

Consider UACGUAGGUGGUUUUCCCCUGAUAGUGCUAAGGGGGCCUGGAAGUUUGGACUGGGCAGAGCUCAACACAGCGUGGCAAAGAGGCUGUGGCUAGACUGCCUCUCUGGAUUCCUCGUCACUCAGCAGGGCACCUCUGAGAGAAAUGCC, for which the self-cleavage was found to be 2.43.

Turning to UACGUAGGUGGUUUUCCCCUGAUAGUGCUAAGGGGGCCUGGAAGUUUGGACUGGGCAGAGCUCAACACAGCGUGGCAAAGAGGCUGUGGCUAGACUGCCUCUCUGGAUUCCUCGUCACUCAGCAGGGCAUCUCUGAGAGAAACGCC, the self-cleavage turned out to be 1.95.

For the variant UACGUAGGUGGUUUUCCCCUGAUAGUGCUAAGGGGGCCUGGAAGUUUGGACUGGGCAGAGCUCAACACAGCGUGGCAAAGAGGCUGUGGCUAGACUGCCUCUCUGGAUCCCUCGUCACUCAGCAGGGCAUCUCUGAGAGAAAUGCC, the self-cleavage is 1.98.

In the case of UACGUAGGUGGUUUUCCCCUGAUAGUGCUAAGGGGGCCUGGAAGUUUGGACUGGGCAGAGCUCAACACAGCGUGGCAAAGAGGCUGUGGCUAGACUGCCACUCUGGAUUCCUCGUCACUCAGCAGGGCAUCUCUGAGAGAAAUGCC, the self-cleavage was found to be 2.09.

Turning to UACGUAGGUGGUUUUCCCCUGAUAGUGCUAAGGGGGCCUGGAAGUUUGGACUGGGCAGAGCUCAACACAGCGUGGCAAAGAGUCUGUGGCUAGACUGCCUCUCUGGAUUCCUCGUCACUCAGCAGGGCAUCUCUGAGAGAAAUGCC, the self-cleavage was 1.3.

For the variant UACGUAGGUGGUUUUCCCCUGAUAGUGCUAAGGGGGCCUGGAAGUUUGGACUGGGCAGAGCUCAACACAGCGUGGCAAAGAGGCUGUGGCUAGACUGCCUCUCUGGAUUCCUCGUCACUCAGCAGGGCAUCCCUGAGAGAAAUGCC, the self-cleavage was 2.25.

UACGUAGGUGGUUUUCCCCUGAUAGUGCUAAGGGGGCCUGGAAGUUUGGACUGGGCAGAGCUCAACACAGCGUGGCAAAGAGGCUGUGGCUAGACUGCCUCUCUGGAUUCCUCGUCACUCAGCAGGGCAUCACUGAGAGAAAUGCC: the self-cleavage is 1.7.

Consider UACGUAGGUGGUUUUCCCCUGAUAGUGCUAAGGGGGCCUGGAAGUUUGGACUGGGCAGAGCUCAACACAGCGUGGCAAAGCGGCUGUGGCUAGGCUGCCUCUCUGGAUUCCUCGUCACUCAGCAGGGCAUCUCUGAGAGAAAUGCC, for which the self-cleavage was found to be 0.37.

For the variant UACGUAGGUGGUUUUCCCCUGAUAGUGCUAAGGGGGCCUGGAAGUUUGGACUGGGCAGAGCUCAACACAGCGUGGCAAAGCGGCUGUGGCUAGUCUGCCUCUCUGGAUUCCUCGUCACUCAGCAGGGCAUCUCUGAGAGAAAUGCC, the self-cleavage came to 0.37.

In the case of UACGUAGGUGGUUUUCCCCUGAUAGUGCUAAGGGGGCCUGGAAGUUUGGACUGGGCAGAGCUCAACACAGCGUGGCAAAGCGGCUGUGGCUAGCCUGCCUCUCUGGAUUCCUCGUCACUCAGCAGGGCAUCUCUGAGAGAAAUGCC, the self-cleavage is 0.

With UACGUAGGUGGUUUUCCCCUGAUAGUGCUAAGGGGGCCUGGAAGUUUGGACUGGGCAGAGCUCAACACAGCGUGGCAAAGCGGCUGUGGCUAGACUGCCUCUCUGGAUUCCUCGUCACUCAGCAGGGCAUCUCUGAGAGAAAUGCC, the self-cleavage is 1.37.

With UACGUAGGUGGUUUUCCCCUGAUAGUGCUAAGGGGGCCUGGAAGUUUGGACUGGGCAGAGCUCAACACAGCGUGGCAAAGAGGCUGUGGCCAGACUGCCUCUCUGGAUUCCUCGUCACUCAGCAGGGCAUCUCUGAGAGAAAUGCC, the self-cleavage was found to be 0.77.

Regarding UACGUAGGUGGUUUUCCCCUGAUAGUGCUAAGGGGGCCUGGAAGUUUGGACUGGGCAGAGCUCAACACAGCGUGGCAAAGAGGCUGUGGCUAGACUGCCUCUCUGGAUUCCUCGUCACUAAGCAGGGCAUCUCUGAGAGAAAUGCC, the self-cleavage amounted to 2.51.

On to UACGUAGGUGGUUUUCCCCUGAUAGUGCUAAGGGGGCCUGGAAGUUUGGACUGGGCAGAGCUCAACACAGCGUGGCAAAGAGGCUGUGGCUAGACUGCCUCUCUGGAUUCCUCGUCACUUAGCAGGGCAUCUCUGAGAGAAAUGCC, for which the self-cleavage amounted to 0.99.
